Series [1] has as its system Cc1cc(=O)oc2cc(NC(=O)[C@H](CCCNC(=N)N)NC(=O)[C@H](CCCNC(=N)N)NC(=O)OCc3ccccc3)ccc12. The experiment in a line: purified protein. As to conditions: 4 mM DTT, 10 mM EDTA.
Series [2] concerns Cc1cc(=O)oc2cc(NC(=O)[C@H](CCCNC(=N)N)NC(=O)[C@H](Cc3ccccc3)NC(=O)OCc3ccccc3)ccc12. Nature of the series: purified protein. The conditions noted are these: 4 mM DTT, 10 mM EDTA.
Setting [3] is: pH 5.5, 37°C, sodium acetate buffer.
[4] abbreviates: pH 5.5, 37°C, sodium acetate buffer, pre-activated 120 min at pH 5.5, pH 5.5.
[5] abbreviates: pH 6, 37°C, sodium phosphate buffer, pre-activated 120 min at pH 5.5.
Where [6] appears, read: pH 6, 37°C, sodium phosphate buffer.

Turning to CP14019 (Giardia lamblia ATCC 50803), in series [1] (setting [3]), the Km (commonly the concentration of substrate that gives half-maximal velocity) is 5.11 ± 1.11 µM and the kcat/Km – broadly, the second-order rate constant that governs catalysis at low substrate concentration – lay within 5410 to 9840 M⁻¹ s⁻¹. Further, in series [2] (setting [3]), the Km is 3.17 ± 0.34 µM and the kcat/Km was 179000 to 237000 M⁻¹ s⁻¹.

For CP16160 (Giardia lamblia ATCC 50803), in series [1] (setting [4]), the Km amounted to 5.60 ± 1.00 µM and the kcat/Km lay in the range of 58600 to 96100 M⁻¹ s⁻¹. In series [2] (setting [5]), the Km turned out to be 9.40 ± 1.46 µM and the kcat/Km is 43000 to 67700 M⁻¹ s⁻¹.

CP16779 (Giardia lamblia ATCC 50803): the Km in series [1] (setting [6]) stood at 5.40 ± 0.75 µM; in series [2] (setting [6]) it was 0.96 ± 0.24 µM. The kcat/Km in series [1] (setting [6]) was in the range of 10500 to 14800 M⁻¹ s⁻¹; in series [2] (setting [6]), 1.02e+06 to 2.06e+06 M⁻¹ s⁻¹.

These data come from PMC5955458, “Secreted Giardia intestinalis cysteine proteases disrupt intestinal epithelial cell junctional complexes and degrade chemokines” (Virulence, 2018).
